Measured values reported in patent US10662413B2, “Recombinant DNA polymerase for improved incorporation of nucleotide analogues” (PERSONAL GENOMICS, INC., priority 2016, dated 2020).
Residue numbers refer to the chain shown, from its start. Numbers in names are those of the source.

What was measured:
[1] = target: T1, Bst-Lg (Bst Large fragment DNA polymerase) (Geobacillus stearothermophilus, UniProt P52026); assay: Polymerase end point (PEP) assay; type: biochemical; conditions: read-out: Average IC50 ± SD
T1 construct: Bst Large fragment DNA polymerase; purchased New England Biolabs
T1 sequence (P52026 289-876 limits assumed): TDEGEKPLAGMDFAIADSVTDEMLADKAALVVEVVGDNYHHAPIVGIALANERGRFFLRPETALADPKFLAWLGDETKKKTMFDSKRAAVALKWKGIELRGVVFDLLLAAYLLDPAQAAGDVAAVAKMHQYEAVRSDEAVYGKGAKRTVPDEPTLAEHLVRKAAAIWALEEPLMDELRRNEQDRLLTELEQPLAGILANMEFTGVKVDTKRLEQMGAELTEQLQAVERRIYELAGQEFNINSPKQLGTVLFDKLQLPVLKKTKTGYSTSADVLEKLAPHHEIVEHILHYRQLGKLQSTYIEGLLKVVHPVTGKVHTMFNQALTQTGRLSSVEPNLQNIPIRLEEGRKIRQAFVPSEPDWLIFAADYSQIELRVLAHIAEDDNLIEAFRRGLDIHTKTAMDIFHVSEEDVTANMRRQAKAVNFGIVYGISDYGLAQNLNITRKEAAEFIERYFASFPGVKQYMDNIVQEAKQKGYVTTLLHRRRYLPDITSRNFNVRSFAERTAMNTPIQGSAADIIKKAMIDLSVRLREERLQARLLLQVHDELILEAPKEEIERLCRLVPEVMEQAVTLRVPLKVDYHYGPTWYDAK
Procedure: (§1) Accordingly, the end-point concentration, IC50 value, of the respective nucleotide was calculated.

THN (Therminator) = assay: Polymerase end point (PEP) assay; type: biochemical; conditions: read-out: Average IC50 ± SD
Procedure: as §1

[2] = target: T2, Klenow (exo-) fragment DNA polymerase (Escherichia coli, UniProt P00582, D355A/E357A); type: biochemical; conditions: PEP assay, read-out: Average IC50 ± SD
T2 construct: Klenow (exo-) fragment DNA polymerase; purchased New England Biolabs
Procedure: as §1

9°N-III DNA polymerase = target: T3, 9°N-III DNA polymerase (Thermococcus sp., UniProt Q56366, A485L/D141A/E143A/L408S/P410V/Y409A); type: biochemical, Thermococcus sp. 9° N-7 strain; conditions: PEP assay, read-out: Average IC50 ± SD
T3 construct: 6x histidine tag (C); made in house; host or cells: E. coli BL21
Procedure: as §1

9°N-I DNA polymerase = target: T4, 9°N-I DNA polymerase (Thermococcus sp., UniProt Q56366, A485L/D141A/E143A); assay: Pre-steady state kinetic assay; type: biochemical, Thermococcus sp. 9° N-7 strain; conditions: 30° C.
T4 construct: made in house; host or cells: E. coli BL21
Procedure: The rate of incorporation of the correct base onto the 25/36 mer duplex was determined in a reaction. The reaction was initiated by combining the solution containing the enzyme and DNA substrate with the second solution containing Mg^2+/dNTP. The reaction was quenched with 0.25 M EDTA (final concentration), pH 8.0. A rapid quench instrument (KinTek Instrument Corp., State College, Pa.) was used for reaction times ranging from 20 ms to 20 s.

5′Q-3′-Ga [3] = tested on: 5′Q-3′-Ga
5′Q-3′-Ga [4] = type: biochemical; conditions: KOD^exo− background

`Nc1ncnc2c1ncn2[C@H]1C[C@H](O)[C@@H](COP(=O)(O)OP(=O)(O)OP(=O)(O)O)O1` [dATP] gave an IC50 [1] of 2.54 ± 0.067 nM, an IC50 (THN (Therminator)) of 0.526 ± 0.008 nM and an IC50 [2] of 0.589 ± 0.008 nM. For the same molecule, the IC50 (9°N-III DNA polymerase) was 14 ± 0.6 nM, the Kd (9°N-I DNA polymerase) was 8000 nM and the kpol (9°N-I DNA polymerase) was 132.4 s⁻¹. It also gave a kpol/Kd (9°N-I DNA polymerase) of 1.655e+07 M⁻¹ s⁻¹.

B1: D480R: 9° N-III mutant D480R, nucleotide binding pocket (protein)
chain: MILDTDYITENGKPVIRVFKKENGEFKIEYDRTFEPYFYALLKDDSAIEDVKKVTAKRHGTVVKVKRAEKVQKKFLGRPIEVWKLYFNHPQDVPAIRDRIRAHPAVVDIYEYDIPFAKRYLIDKGLIPMEGDEELTMLAFAIATLYHEGEEFGTGPILMISYADGSEARVITWKKIDLPYVDVVSTEKEMIKRFLRVVREKDPDVLITYNGDNFDFAYLKKRCEELGIKFTLGRDGSEPKIQRMGDRFAVEVKGRIHFDLYPVIRRTINLPTYTLEAVYEAVFGKPKEKVYAEEIAQAWESGEGLERVARYSMEDAKVTYELGREFFPMEAQLSRLIGQSLWDVSRSSTGNLVEWFLLRKAYKRNELAPNKPDERELARRRGGYAGGYVKEPERGLWDNIVYLDFRSSAVSIIITHNVSPDTLNREGCKEYDVAPEVGHKFCKDFPGFIPSLLGDLLEERQKIKRKMKATVDPLEKKLLRYRQRLIKILANSFYGYYGYAKARWYCKECAESVTAWGREYIEMVIRELEEKFGFKVLYADTDGLHATIPGADAETVKKKAKEFLKYINPKLPGLLELEYEGFYVRGFFVTKKKYAVIDEEGKITTRGLEIVRRDWSEIAKETQARVLEAILKHGDVEEAVRIVKEVTEKLSKYEVPPEKLVIHEQITRDLRDYKATGPHVAVAKRLAARGVKIRPGTVISYIVLKGSGRIGDRAIPADEFDPTKHRYDAEYYIENQVLPAVERILKAFGYRKEDLRYQKTKQVGLGAWLKVKGKK
With B1 the “conversion rate (C.R.) of extension product” value (“conversion rate” below) (5′Q-3′-Ga [3]) was 83%.

B2: D480M: 9° N-III mutant D480M, nucleotide binding pocket (protein)
chain: B1 chain with R480M
With B2 the “conversion rate” value (5′Q-3′-Ga [3]) was 80%.

B3: I486A: 9° N-III mutant I486A, nucleotide binding pocket (protein)
chain: B1 chain with R480D, I486A
B3 was tested, and the “conversion rate” value (5′Q-3′-Ga [3]) was 82%.

B4: I486F: 9° N-III mutant I486F, nucleotide binding pocket (protein)
chain: B1 chain with R480D, I486F
In the case of B4, the “conversion rate” value (5′Q-3′-Ga [3]) is reported as 81%.

B5: D480H: KOD^exo− mutant D480H (protein)
chain: B1 chain with R480H
With B5 the “conversion of 5′Q-3′-Ga” value (5′Q-3′-Ga [4]) was 84%.

B6: V282F: 9° N-III mutant V282F, nucleotide binding pocket (protein)
chain: B1 chain with V282F, R480D
In the case of B6, the “conversion rate” value (5′Q-3′-Ga [3]) is reported as 66%.

B7: I486P: 9° N-III mutant I486P, nucleotide binding pocket (protein)
chain: B1 chain with R480D, I486P
For B7, the “conversion rate” value (5′Q-3′-Ga [3]) was 100%.

B8: V410G: 9° N-III mutant V410G, nucleotide binding pocket (protein)
chain: B1 chain with V410G, R480D
In the case of B8, the “conversion rate” value (5′Q-3′-Ga [3]) is reported as 69%.

B9: L485F: 9° N-III mutant L485F, nucleotide binding pocket (protein)
chain: B1 chain with R480D, L485F
With B9 the “conversion rate” value (5′Q-3′-Ga [3]) was 74%.

B10: I486W: 9° N-III mutant I486W, nucleotide binding pocket (protein)
chain: B1 chain with R480D, I486W
B10 was tested, and the “conversion rate” value (5′Q-3′-Ga [3]) was 81%.

B11: I486Y: 9° N-III mutant I486Y, nucleotide binding pocket (protein)
chain: B1 chain with R480D, I486Y
In the case of B11, the “conversion rate” value (5′Q-3′-Ga [3]) is reported as 82%.

B12: I486R: 9° N-III mutant I486R, nucleotide binding pocket (protein)
chain: B1 chain with R480D, I486R
For B12, the “conversion rate” value (5′Q-3′-Ga [3]) was 87%.

B13: D480P: 9° N-III mutant D480P, nucleotide binding pocket (protein)
chain: B1 chain with R480P
With B13 the “conversion rate” value (5′Q-3′-Ga [3]) was 82%.

B14: D480W: KOD^exo− mutant D480W (protein)
chain: B1 chain with R480W
For B14, the “conversion of 5′Q-3′-Ga” value (5′Q-3′-Ga [4]) was 77%.

B15: D480N: KOD^exo− mutant D480N (protein)
chain: B1 chain with R480N
B15 was tested, and the “conversion of 5′Q-3′-Ga” value (5′Q-3′-Ga [4]) was 83%.

B16: K477F: 9° N-III mutant K477F, nucleotide binding pocket (protein)
chain: B1 chain with K477F, R480D
In the case of B16, the “conversion rate” value (5′Q-3′-Ga [3]) is reported as 82%.

B17: D480G: 9° N-III mutant D480G, nucleotide binding pocket (protein)
chain: B1 chain with R480G
In the case of B17, the “conversion rate” value (5′Q-3′-Ga [3]) is reported as 80%.

B18: D480A: 9° N-III mutant D480A, nucleotide binding pocket (protein)
chain: B1 chain with R480A
B18 was tested, and the “conversion rate” value (5′Q-3′-Ga [3]) was 81%.

B19: V410P: 9° N-III mutant V410P, nucleotide binding pocket (protein)
chain: B1 chain with V410P, R480D
In the case of B19, the “conversion rate” value (5′Q-3′-Ga [3]) is reported as 78%.

B20: D480I: 9° N-III mutant D480I, nucleotide binding pocket (protein)
chain: B1 chain with R480I
With B20 the “conversion rate” value (5′Q-3′-Ga [3]) was 82%.

B21: KOD^exo−: KOD^exo− DNA polymerase with mutations at residues 141 and 143 (SEQ ID NO: 5) (protein)
chain: MILDTDYITEDGKPVIRIFKKENGEFKIEYDRTFEPYFYALLKDDSAIEEVKKITAERHGTVVTVKRVEKVQKKFLGRPVEVWKLYFTHPQDVPAIRDKIREHPAVIDIYEYDIPFAKRYLIDKGLVPMEGDEELKMLAFAIATLYHEGEEFAEGPILMISYADEEGARVITWKNVDLPYVDVVSTEREMIKRFLRVVKEKDPDVLITYNGDNFDFAYLKKRCEKLGINFALGRDGSEPKIQRMGDRFAVEVKGRIHFDLYPVIRRTINLPTYTLEAVYEAVFGQPKEKVYAEEITTAWETGENLERVARYSMEDAKVTYELGKEFLPMEAQLSRLIGQSLWDVSRSSTGNLVEWFLLRKAYERNELAPNKPDEKELARRRQSYEGGYVKEPERGLWENIVYLDFRSLYPSIIITHNVSPDTLNREGCKEYDVAPQVGHRFCKDFPGFIPSLLGDLLEERQKIKKKMKATIDPIERKLLDYRQRAIKILANSYYGYYGYARARWYCKECAESVTAWGREYITMTIKEIEEKYGFKVIYSDTDGFFATIPGADAETVKKKAMEFLKYINAKLPGALELEYEGFYKRGFFVTKKKYAVIDEEGKITTRGLEIVRRDWSEIAKETQARVLEALLKDGDVEKAVRIVKEVTEKLSKYEVPPEKLVIHEQITRDLKDYKATGPHVAVAKRLAARGVKIRPGTVISYIVLKGSGRIGDRAIPFDEFDPTKHKYDAEYYIENQVLPAVERILRAFGYRKEDLRYQKTRQVGLSAWLKPKGT
modifications: Thermococcus kodakarensis kod1; KODexo- DNA polymerase
B21 was tested, and the “conversion of 5′Q-3′-Ga” value (5′Q-3′-Ga [4]) was 37%.
